Test results reported in article doi:10.1101/2022.06.02.494603.

Molecular target: optineurin, C-terminal myc-FLAG-tagged, Q96CV9
Assay: co-IP
Details: remark: other sources report otherwise

Sequence of optineurin, C-terminal myc-FLAG-tagged, Q96CV9 (Q96CV9 whole entry): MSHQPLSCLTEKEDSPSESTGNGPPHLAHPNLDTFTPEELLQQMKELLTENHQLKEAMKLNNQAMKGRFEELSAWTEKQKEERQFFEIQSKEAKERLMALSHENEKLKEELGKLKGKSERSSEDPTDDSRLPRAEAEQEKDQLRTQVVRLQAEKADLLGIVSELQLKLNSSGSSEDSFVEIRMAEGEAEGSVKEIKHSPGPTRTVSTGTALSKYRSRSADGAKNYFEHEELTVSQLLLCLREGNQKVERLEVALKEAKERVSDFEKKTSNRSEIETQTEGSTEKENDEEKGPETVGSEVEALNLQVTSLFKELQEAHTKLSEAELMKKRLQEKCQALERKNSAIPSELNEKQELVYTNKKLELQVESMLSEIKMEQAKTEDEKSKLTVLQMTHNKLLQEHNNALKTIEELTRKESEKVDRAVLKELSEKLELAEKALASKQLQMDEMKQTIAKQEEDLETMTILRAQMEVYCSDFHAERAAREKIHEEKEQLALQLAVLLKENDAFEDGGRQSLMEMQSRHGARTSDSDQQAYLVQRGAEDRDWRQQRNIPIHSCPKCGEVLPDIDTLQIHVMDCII

Row | Binder | TBK1 bound to OPTN relative to wild type (relative to TBK1 WT)
1 | TBK1 p.E696K, untagged, Q9UHD2 1-729 (natural protein) MQSTSNHLWLLSDILGQGATANVFRGRHKKTGDLFAIKVFNNISFLRPVDVQMREFEVLKKLNHKNIVKLFAIEEETTTRHKVLIMEFCPCGSLYTVLEEPSNAYGLPESEFLIVLRDVVGGMNHLRENGIVHRDIKPGNIMRVIGEDGQSVYKLTDFGAARELEDDEQFVSLYGTEEYLHPDMYERAVLRKDHQKKYGATVDLWSIGVTFYHAATGSLPFRPFEGPRRNKEVMYKIITGKPSGAISGVQKAENGPIDWSGDMPVSCSLSRGLQVLLTPVLANILEADQEKCWGFDQFFAETSDILHRMVIHVFSLQQMTAHKIYIHSYNTATIFHELVYKQTKIISSNQELIYEGRRLVLEPGRLAQHFPKTTEENPIFVVSREPLNTIGLIYEKISLPKVHPRYDLDGDASMAKAITGVVCYACRIASTLLLYQELMRKGIRWLIELIKDDYNETVHKKTEVVITLDFCIRNIEKTVKVYEKLMKINLEAAELGEISDIHTKLLRLSSSQGTIETSLQDIDSRLSPGGSLADAWAHQEGTHPKDRNVEKLQVLLNCMTEIYYQFKKDKAERRLAYNEEQIHKFDKQKLYYHATKAMTHFTDECVKKYEAFLNKSEEWIRKMLHLRKQLLSLTNQCFDIEEEVSKYQEYTNELQETLPQKMFTASSGIKHTMTPIYPSSNTLVEMTLGMKKLKEKMEGVVKELAENNHILERFGSLTMDGGLRNVDCL | 0.02
2 | TBK1 G217R, untagged, Q9UHD2 1-729 (natural protein) MQSTSNHLWLLSDILGQGATANVFRGRHKKTGDLFAIKVFNNISFLRPVDVQMREFEVLKKLNHKNIVKLFAIEEETTTRHKVLIMEFCPCGSLYTVLEEPSNAYGLPESEFLIVLRDVVGGMNHLRENGIVHRDIKPGNIMRVIGEDGQSVYKLTDFGAARELEDDEQFVSLYGTEEYLHPDMYERAVLRKDHQKKYGATVDLWSIGVTFYHAATRSLPFRPFEGPRRNKEVMYKIITGKPSGAISGVQKAENGPIDWSGDMPVSCSLSRGLQVLLTPVLANILEADQEKCWGFDQFFAETSDILHRMVIHVFSLQQMTAHKIYIHSYNTATIFHELVYKQTKIISSNQELIYEGRRLVLEPGRLAQHFPKTTEENPIFVVSREPLNTIGLIYEKISLPKVHPRYDLDGDASMAKAITGVVCYACRIASTLLLYQELMRKGIRWLIELIKDDYNETVHKKTEVVITLDFCIRNIEKTVKVYEKLMKINLEAAELGEISDIHTKLLRLSSSQGTIETSLQDIDSRLSPGGSLADAWAHQEGTHPKDRNVEKLQVLLNCMTEIYYQFKKDKAERRLAYNEEQIHKFDKQKLYYHATKAMTHFTDECVKKYEAFLNKSEEWIRKMLHLRKQLLSLTNQCFDIEEEVSKYQEYTNELQETLPQKMFTASSGIKHTMTPIYPSSNTLVEMTLGMKKLKEEMEGVVKELAENNHILERFGSLTMDGGLRNVDCL | 0.27
